Data from paper PMC3731569 (Cell Research, 2013).

Biological target: Human DPP4 extracellular domain (residues 39-766) (human, UniProt P27487 39-766)
Assay: […], ~10 mg/ml in HBS

Chain of Human DPP4 extracellular domain (residues 39-766) (P27487 39-766): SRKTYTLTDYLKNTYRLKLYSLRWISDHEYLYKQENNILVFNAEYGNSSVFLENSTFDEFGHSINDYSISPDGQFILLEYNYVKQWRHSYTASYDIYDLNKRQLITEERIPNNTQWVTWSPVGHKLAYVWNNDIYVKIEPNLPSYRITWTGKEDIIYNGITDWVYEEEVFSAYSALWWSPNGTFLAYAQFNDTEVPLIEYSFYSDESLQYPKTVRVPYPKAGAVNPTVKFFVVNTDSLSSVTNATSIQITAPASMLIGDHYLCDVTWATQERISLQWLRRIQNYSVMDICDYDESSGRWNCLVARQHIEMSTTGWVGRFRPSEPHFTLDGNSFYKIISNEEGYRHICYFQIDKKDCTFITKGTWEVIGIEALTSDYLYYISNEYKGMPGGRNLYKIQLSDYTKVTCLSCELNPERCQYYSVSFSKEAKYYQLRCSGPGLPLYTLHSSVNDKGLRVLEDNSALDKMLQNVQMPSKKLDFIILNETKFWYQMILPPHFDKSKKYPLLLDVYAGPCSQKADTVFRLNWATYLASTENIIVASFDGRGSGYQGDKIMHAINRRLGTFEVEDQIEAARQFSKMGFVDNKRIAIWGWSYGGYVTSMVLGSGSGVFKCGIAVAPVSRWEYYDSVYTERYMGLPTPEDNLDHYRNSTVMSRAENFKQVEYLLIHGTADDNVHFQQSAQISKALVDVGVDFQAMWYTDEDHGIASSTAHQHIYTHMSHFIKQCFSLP

B1: MERS-CoV RBD (E367 to Y606) (domain or fragment)
chain: EAKPSGSVVEQAEGVECDFSPLLSGTPPQVYNFKRLVFTNCNYNLTKLLSLFSVNDFTCSQISPAAIASNCYSSLILDYFSYPLSMKSDLSVSSAGPISQFNYKQSFSNPTCLILATVPHNLTTITKPLKYSYINKCSRFLSDDRTEVPQLVNANQYSPCVSIVPSTVWEDGDYYRKQLSPLEGGGWLVASGSTVAMTEQLQMGFGITVQYGTDTNSVCPKLEFANDTKIASQLGNCVEY
B1: binds.
